Measurements reported in the supplement of paper PMC7877785.
± gives the uncertainty stated by the source.

Assay: self-splicing fitness, log relative to wild type (ln ratio); higher = more splicing; Tetrahymena group I intron in knt gene, E. coli kanamycin selection, DiMSum; sequences stand for … in CUCUCU…GGAGGGAAAAGUUAUCAGGCAUGCACCUGGUAGCUAGUCUUUAAACCAAUAGAUUGCAUCGGUUUAAAAGGCAAGACCGUCAAAUUGCGGGAAAGGGGUCAACAGCCGUUCAGUACCAAGUCUCAGGGGAAACUUUGAGAUGGCCUUGCAAAGGGUAUGGUAAUAAGCUGACGGACAUGGUCCUAACCACGCAGCCAAGUCCUAAGUCAACAGAUCUUCUGUUGAUAUGGAUGCAGUUCACAGACUAAAUGUCGGUCGGGGAAGAUGUAUUCUUCUCAUAAGAUAUAGUCGGACCUCUCCUUAAUGGGAGCUAGCGGAUGAAGUGAUGCAACACUGGAGCCGCUGGGAACUAAUUUGUAUGCGAAAGUAUAUUGAUUAGUUUUGGAGUACUCGUGGUCG
How it was run: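 Colonies from six replicate transformations of E. coli BL21(DE3) were pooled and amplicon-sequenced on an Illumina HiSeq 2500. The library placed an intron with all eight P1ex-region nucleotides randomised inside the knt kanamycin-resistance gene on pET-22b(+), and cells grew overnight at 37°C or 30°C on LB agar with or without 25 μg/mL kanamycin (plus 100 μg/mL carbenicillin, 50 μM IPTG, 0.2% rhamnose). Fitness is the DiMSum error-weighted combination of wild-type-normalised replicate fold changes, kanamycin versus none.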

Sequence | self-splicing fitness (ln) (30 °C) | self-splicing fitness (ln) (37 °C)
GUGCAGCAAUAUUACGUCCA | -1.53 ± 0.28 | -0.793 ± 0.27
GUGCAGCAAUAUUACGUGCA | -3.19 ± 0.15 | -2.41 ± 0.17
GUGCAGCAAUAUUACGUGGG | -2.86 ± 0.11 | -2.01 ± 0.11
GUGCAGCAAUAUUACGUUAA | -1.75 ± 0.13 | -1.25 ± 0.13
GUGCAGCAAUAUUACGUUCC | -2.72 ± 0.18 | -1.05 ± 0.25
GUGCAGCAAUAUUACGUUGG | -2.58 ± 0.084 | -1.56 ± 0.097
GUGGAGCAAUAUUACGACGA |  | -1.12 ± 0.46
GUGGAGCAAUAUUACGAGUA |  | -1.96 ± 0.44
GUGGAGCAAUAUUACGCUUG | -1.21 ± 0.16 | -1.25 ± 0.21
GUGGAGCAAUAUUACGGCGA | -0.352 ± 0.17 | -1.43 ± 0.23
GUGGAGCAAUAUUACGGCUU | -1.6 ± 0.28 | 
GUGGAGCAAUAUUACGGGCA | -2.2 ± 0.28 | -1.76 ± 0.45
GUGGAGCAAUAUUACGUAAC | -0.784 ± 0.18 | -0.991 ± 0.28
GUGGAGCAAUAUUACGUACG |  | -2.05 ± 0.23
GUGGAGCAAUAUUACGUUUG | -3.31 ± 0.26 | -2.79 ± 0.3
GUGUAGCAAUAUUACGAAAC | -3.2 ± 0.41 | -1.89 ± 0.34
GUGUAGCAAUAUUACGAUCU | -1.04 ± 0.1 | 0.329 ± 0.11
GUGUAGCAAUAUUACGAUUA | -1.58 ± 0.27 | 0.0491 ± 0.2
GUGUAGCAAUAUUACGCACA |  | -1.5 ± 0.2
GUGUAGCAAUAUUACGCAGU | -3.25 ± 0.21 | -2.46 ± 0.23
GUGUAGCAAUAUUACGCCAA |  | -1.85 ± 0.34
GUGUAGCAAUAUUACGCCAG |  | -1.12 ± 0.5
GUGUAGCAAUAUUACGCCGU | -1.25 ± 0.17 | -1.67 ± 0.36
GUGUAGCAAUAUUACGCGAA | -2.15 ± 0.17 | -0.555 ± 0.14
GUGUAGCAAUAUUACGCGUU |  | -0.621 ± 0.17

Sequence | self-splicing fitness (ln) (30 °C) | self-splicing fitness (ln) (37 °C)
GUGUAGCAAUAUUACGCUAA | -1.77 ± 0.42 | -1.01 ± 0.3
GUGUAGCAAUAUUACGCUUG | -1.07 ± 0.16 | -1.57 ± 0.27
GUGUAGCAAUAUUACGGAUU | -2.13 ± 0.087 | -1.16 ± 0.11
GUGUAGCAAUAUUACGGCGA | -1.18 ± 0.089 | -0.268 ± 0.098
GUGUAGCAAUAUUACGGGCU | -2.88 ± 0.46 | -0.129 ± 0.14
GUGUAGCAAUAUUACGGUCC | -1.7 ± 0.23 | -0.716 ± 0.25
GUGUAGCAAUAUUACGGUCG | -1.32 ± 0.16 | -0.824 ± 0.25
GUGUAGCAAUAUUACGUACC | -1.2 ± 0.29 | -0.885 ± 0.37
GUGUAGCAAUAUUACGUACU | -1.52 ± 0.095 | -1.19 ± 0.14
GUGUAGCAAUAUUACGUAGG | -2.66 ± 0.18 | -1.5 ± 0.18
GUGUAGCAAUAUUACGUGAA | -1.94 ± 0.19 | -0.954 ± 0.2
GUGUAGCAAUAUUACGUGAG | -1.23 ± 0.095 | -0.931 ± 0.093
GUGUAGCAAUAUUACGUGCU | -1.44 ± 0.11 | -1.09 ± 0.13
GUGUAGCAAUAUUACGUUAG | -2.45 ± 0.25 | -1.56 ± 0.22
GUUAAGCAAUAUUACGAAGG | -2.17 ± 0.18 | -1.87 ± 0.28
GUUAAGCAAUAUUACGACUA | -0.731 ± 0.13 | -0.438 ± 0.11
GUUAAGCAAUAUUACGAGCG | -1.54 ± 0.11 | -0.685 ± 0.13
GUUAAGCAAUAUUACGCCAU | -2.03 ± 0.27 | -1.26 ± 0.3
GUUAAGCAAUAUUACGGCCC | 0.0722 ± 0.14 | 0.517 ± 0.17
GUUAAGCAAUAUUACGGCGA | -0.403 ± 0.096 | -0.122 ± 0.11
GUUAAGCAAUAUUACGGGCA | -0.851 ± 0.15 | -1.14 ± 0.14
GUUAAGCAAUAUUACGGUAC | -1.7 ± 0.17 | -1.33 ± 0.22
GUUAAGCAAUAUUACGUACA | -1.04 ± 0.11 | -0.694 ± 0.16
GUUAAGCAAUAUUACGUCGU | -0.93 ± 0.078 | -0.441 ± 0.081
GUUAAGCAAUAUUACGUGAC | -1.93 ± 0.24 | -2.56 ± 0.37

Sequence | self-splicing fitness (ln) (30 °C) | self-splicing fitness (ln) (37 °C)
GUUAAGCAAUAUUACGUUAA | -2.24 ± 0.17 | -1.79 ± 0.17
GUUAAGCAAUAUUACGUUAC | -2.36 ± 0.19 | -1.33 ± 0.15
GUUAAGCAAUAUUACGUUCA | -0.268 ± 0.09 | -0.472 ± 0.11
GUUCAGCAAUAUUACGAAAG | -0.36 ± 0.24 | 0.462 ± 0.22
GUUCAGCAAUAUUACGAAAU | -0.0391 ± 0.068 | 0.236 ± 0.12
GUUCAGCAAUAUUACGACAU | -0.0137 ± 0.013 | 0.437 ± 0.033
GUUCAGCAAUAUUACGACGC | 0.0985 ± 0.12 | 0.651 ± 0.23
GUUCAGCAAUAUUACGCAGC | -3.43 ± 0.29 | -1.1 ± 0.2
GUUCAGCAAUAUUACGCGAA | -2.26 ± 0.27 | -1.82 ± 0.28
GUUCAGCAAUAUUACGCGCG | -0.45 ± 0.31 | -0.279 ± 0.23
GUUCAGCAAUAUUACGCGGG | -2.32 ± 0.14 | -0.613 ± 0.1
GUUCAGCAAUAUUACGGAAC | -3.19 ± 0.2 | -2.09 ± 0.38
GUUCAGCAAUAUUACGGAGG | -2.38 ± 0.13 | -1.22 ± 0.17
GUUCAGCAAUAUUACGGAGU | -1.48 ± 0.12 | -0.963 ± 0.15
GUUCAGCAAUAUUACGGGAA | -1.16 ± 0.14 | -0.278 ± 0.13
GUUCAGCAAUAUUACGGGAC | -2.39 ± 0.18 | -1.16 ± 0.19
GUUCAGCAAUAUUACGGUAU | -0.357 ± 0.062 | 0.309 ± 0.073
GUUCAGCAAUAUUACGGUUC | -1.66 ± 0.14 | 0.019 ± 0.18
GUUCAGCAAUAUUACGUCAG | -3.88 ± 0.23 | -3.07 ± 0.24
GUUCAGCAAUAUUACGUCUC | -0.362 ± 0.065 | 0.216 ± 0.083
GUUCAGCAAUAUUACGUGAC | -1.85 ± 0.11 | -2.22 ± 0.12
GUUCAGCAAUAUUACGUGUA | -0.88 ± 0.078 | -0.647 ± 0.071
GUUCAGCAAUAUUACGUUGA | -3.12 ± 0.28 | -1.57 ± 0.17
GUUCAGCAAUAUUACGUUUC | -0.965 ± 0.07 | -0.339 ± 0.084
GUUGAGCAAUAUUACGAGAG | -3.95 ± 0.4 | -2.63 ± 0.41

Sequence | self-splicing fitness (ln) (30 °C) | self-splicing fitness (ln) (37 °C)
GUUGAGCAAUAUUACGCAUC | -1.26 ± 0.25 | 
GUUGAGCAAUAUUACGCGGU | -3.32 ± 0.41 | -2.73 ± 0.34
GUUGAGCAAUAUUACGCUAG | -3.01 ± 0.44 | 
GUUGAGCAAUAUUACGCUGU | -4.02 ± 0.22 | -2.15 ± 0.19
GUUGAGCAAUAUUACGGAAC | -1.6 ± 0.43 | 
GUUGAGCAAUAUUACGGAGC | -1.01 ± 0.2 | -2.82 ± 0.3
GUUGAGCAAUAUUACGGAUC | -1.91 ± 0.14 | -1.16 ± 0.14
GUUGAGCAAUAUUACGGCCA |  | -0.675 ± 0.24
GUUGAGCAAUAUUACGGCUA | -0.763 ± 0.18 | -0.798 ± 0.19
GUUGAGCAAUAUUACGGUAG | -4.24 ± 0.46 | -1.94 ± 0.41
GUUGAGCAAUAUUACGGUUU | -4.2 ± 0.33 | -2.73 ± 0.32
GUUGAGCAAUAUUACGUAUU | -3.74 ± 0.47 | 
GUUGAGCAAUAUUACGUCUA | -2.72 ± 0.46 | -0.927 ± 0.24
GUUGAGCAAUAUUACGUGCG | -3.02 ± 0.21 | -2.07 ± 0.25
GUUGAGCAAUAUUACGUGGG | -3.09 ± 0.23 | -1.97 ± 0.18
GUUGAGCAAUAUUACGUGUG | -3.65 ± 0.34 | -3.15 ± 0.32
GUUGAGCAAUAUUACGUUCA | -2.3 ± 0.5 | -1.52 ± 0.25
GUUUAGCAAUAUUACGAACG | -1.78 ± 0.21 | -1.03 ± 0.29
GUUUAGCAAUAUUACGACCU | -1.03 ± 0.11 | -0.456 ± 0.14
GUUUAGCAAUAUUACGACUU | -0.551 ± 0.11 | 0.304 ± 0.14
GUUUAGCAAUAUUACGAUAC | -1.44 ± 0.18 | -0.147 ± 0.28
GUUUAGCAAUAUUACGAUCC | -0.72 ± 0.26 | -0.434 ± 0.32
GUUUAGCAAUAUUACGAUUC | -0.603 ± 0.098 | 0.273 ± 0.14
GUUUAGCAAUAUUACGCAAC | -3.59 ± 0.48 | -2.14 ± 0.39
